Assay results published in patent publication US20230174641A1 (H LUNDBECK A S, published 2023).
Ends that are not written are not given here.

Key:
human ACTH 1-39 [1] = molecular target: T1, human ACTH 1-39 (human); assay: cell-based or functional assay
T1 peptide: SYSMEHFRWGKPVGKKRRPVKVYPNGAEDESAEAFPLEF

human ACTH 1-39 [2] = molecular target: T1, human ACTH 1-39; assay: cell-based or functional assay
human ACTH 1-39 [3] = molecular target: T1, human ACTH 1-39; assay: cell-based or functional assay
human ACTH 1-39 [4] = molecular target: T1, human ACTH 1-39; assay: cell-based or functional assay
human ACTH 1-39 [5] = molecular target: T1, human ACTH 1-39; assay: SPR ProteOn, antibody immobilised
Experimental: (§1) Antibody was immobilized to the surface of general amine coupling (GLC or GLM) Chips (Bio-Rad). […] At the chosen concentrations of antigen (ranging from 454 ng/ml to 5.6 ng/ml) association times of 200 seconds and dissociation times of 30-200 minutes were used with the ProteOnTM Manager Software (v3.1.0.6, Bio-Rad) to group and fit data using a 1:1 Langmuir binding model. Surfaces were regenerated between analyte queries using 10 mM glycine at pH 2.0. Data repeated across a single density was averaged and a single KD and standard propagation of error calculated for each antibody.

human ACTH 18-39 = molecular target: T2, human ACTH 18-39 (human); assay: SPR ProteOn, antibody immobilised
T2 construct: also called CLIP; CLIP (ACTH 18-39)
T2 peptide: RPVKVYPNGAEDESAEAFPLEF
Experimental: as §1

[6] = molecular target: T3, N-term biotinylated human ACTH 1-39 (human, N-terminal biotin); assay: ELISA, biotin-ACTH 1-39 on neutravidin plate
T3 construct: also called huACTH 1-39
T3 peptide: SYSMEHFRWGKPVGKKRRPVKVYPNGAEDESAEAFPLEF
Experimental: All incubations were done at room temperature. […] The plates were then blocked using a blocking solution (PBS, 0.5% fish skin gelatin, 0.05% Tween-20) for approximately one hour. The blocking solution was then removed and the plates were then incubated with a dilution series of the antibody being tested for approximately one hour. At the end of this incubation, the plate was washed three times with wash buffer and further incubated with a secondary antibody containing solution (Peroxidase conjugated AffmiPure™ F(ab′)₂ fragment goat anti-human IgG, Fc fragment specific (Jackson Immunoresearch) for approximately 45 minutes and washed three times. Next a substrate solution (TMB peroxidase substrate, BioFx®, SurModics, Eden Prairie, Minn.) was added and incubated for 3 to 5 minutes in the dark. The reaction was stopped by addition of 0.5 M HCl and the plate was read at 450 nm in a plate-reader.

human ACTH 1-13 = molecular target: T4, human ACTH 1-13 (human, ends and bridges not checked); assay: SPR ProteOn, antibody immobilised; SPR, antibody on the chip, alpha-MSH alone (Table 6)
T4 construct: also called human alpha-MSH (ACTH 1-13); alpha-MSH
T4 peptide: SYSMEHFRWGKPV
Experimental: as §1

[7] = molecular target: T3, N-term biotinylated human ACTH 1-39; assay: competition HTRF, biotinylated human ACTH 1-39 in the presence of ACTH 1-13 and ACTH 18-39 at 1X (55 nM each, [p-2038])
Experimental: (§2) Twenty microliters of Eu3+cryptate labeled anti-hu Fc donor and 20 μl of d2-labeled streptavidin acceptor were added to each well and incubated for 1 hour at room temperature. Fluorescence was measured at […] with a delay of 300 μsec.

[8] = molecular target: T3, N-term biotinylated human ACTH 1-39; assay: competition HTRF, biotinylated human ACTH 1-39 in the presence of ACTH 1-13 and ACTH 18-39 at 10X (550 nM each, [p-2038])
Experimental: as §2

- MC2R IC50 (human ACTH 1-39 [1]): 0.11 nM
- MC1R IC50 (human ACTH 1-39 [2]): 1.96 nM
- MC3R IC50 (human ACTH 1-39 [3]): 58.1 nM
- MC4R IC50 (human ACTH 1-39 [3]): 43.4 nM
- MC5R IC50 (human ACTH 1-39 [3]): 1000 nM
- Y1 Cells IC50 (human ACTH 1-39 [4]): 3.49 nM
- Kd (human ACTH 1-39 [5]): 0.064 nM
- koff (human ACTH 1-39 [5]): 6.4e-05 s⁻¹
- kon (human ACTH 1-39 [5]): 1e+06 M⁻¹ s⁻¹
- koff (human ACTH 18-39): > 0.1 s⁻¹
- EC50 [6]: 1.5 nM
- Kd (human ACTH 1-13): 55 nM
- koff (human ACTH 1-13): 0.014 s⁻¹
- kon (human ACTH 1-13): 260000 M⁻¹ s⁻¹
- EC50 (read off the curve) [7]: ~2 nM
- EC50 (read off the curve) [8]: ~3 nM
B1: Ab5 (antibody, human IgG1, kappa, N297A, V domains shown)
VH: QSVEESGGRLVTPGTPLTLTCTVSGFSLSSYAMSWVRQAPGEGLEWIGIISDSGSTYYASWAKGRFTISKTSTTVDLKITSPTTEDTATYFCAREPEYGYDDYGDWVSDLWGQGTLVTVSS
VL: DIVMTQTPASVSEPVGGTVTIKCQASQSISSYLSWYQQKPGQPPKLLIYRASTLASGVPSRFKGSGSGTQFTLTISDLECADAATYYCQSYYYSSSITYRNAFGGGTEVVVKR
notes: rabbit/human chimeric antibody, made in HEK-293
